1 molecule from paper PMC8028314, “Sae2 and Rif2 regulate MRX endonuclease activity at DNA double-strand breaks in opposite manners” (Cell Reports, 2021) can be followed below.

The target of the assay is T1, Mre11-Rad50 complex (S. cerevisiae, UniProt P32829 1-692; P12753 1-1312).
T1 construct: Mre11, S. cerevisiae; Rad50, S. cerevisiae; untagged; they were not measured here; also called wild-type MR; source: Sf9 cells, purified (NiNTA, HiTrap SP HP, HiTrap Q HP); copies: 2 + 2
Description: pull-down; MBP-Rif2-his from Sf9 lysate bound to amylose resin, washed with 1 M then 0.1 M NaCl buffer (50 mM Tris-HCl pH 7.5, 0.2% NP40, 2 mM EDTA); recombinant MR variants (1 ug) added, 1 h at 4°C; washed with 0.1 M NaCl buffer; eluted with 20 mM maltose and cleaved with PreScission protease; Ponceau (Rif2) and western blots (anti-Rad50, anti-His). The note with it: both partners purified.

T1 sequence (P32829 whole entry, chain 1 of 2): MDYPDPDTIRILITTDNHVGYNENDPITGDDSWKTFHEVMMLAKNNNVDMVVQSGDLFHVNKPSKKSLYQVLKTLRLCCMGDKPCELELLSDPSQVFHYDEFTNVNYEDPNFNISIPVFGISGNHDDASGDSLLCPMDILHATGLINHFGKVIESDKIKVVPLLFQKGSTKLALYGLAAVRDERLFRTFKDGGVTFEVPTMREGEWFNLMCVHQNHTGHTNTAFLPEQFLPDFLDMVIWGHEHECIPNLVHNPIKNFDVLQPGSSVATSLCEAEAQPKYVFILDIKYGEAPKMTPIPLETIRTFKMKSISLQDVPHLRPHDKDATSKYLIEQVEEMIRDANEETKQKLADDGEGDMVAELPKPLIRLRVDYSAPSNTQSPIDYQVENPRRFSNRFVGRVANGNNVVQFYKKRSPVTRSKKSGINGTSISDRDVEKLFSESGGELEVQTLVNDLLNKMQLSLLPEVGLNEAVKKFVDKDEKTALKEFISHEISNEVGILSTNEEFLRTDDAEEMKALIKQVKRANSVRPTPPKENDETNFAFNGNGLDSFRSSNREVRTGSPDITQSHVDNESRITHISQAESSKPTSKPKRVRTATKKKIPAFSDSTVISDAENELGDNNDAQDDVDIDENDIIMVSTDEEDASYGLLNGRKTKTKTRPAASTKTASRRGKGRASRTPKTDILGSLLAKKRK
T1 sequence (P12753 whole entry, chain 2 of 2): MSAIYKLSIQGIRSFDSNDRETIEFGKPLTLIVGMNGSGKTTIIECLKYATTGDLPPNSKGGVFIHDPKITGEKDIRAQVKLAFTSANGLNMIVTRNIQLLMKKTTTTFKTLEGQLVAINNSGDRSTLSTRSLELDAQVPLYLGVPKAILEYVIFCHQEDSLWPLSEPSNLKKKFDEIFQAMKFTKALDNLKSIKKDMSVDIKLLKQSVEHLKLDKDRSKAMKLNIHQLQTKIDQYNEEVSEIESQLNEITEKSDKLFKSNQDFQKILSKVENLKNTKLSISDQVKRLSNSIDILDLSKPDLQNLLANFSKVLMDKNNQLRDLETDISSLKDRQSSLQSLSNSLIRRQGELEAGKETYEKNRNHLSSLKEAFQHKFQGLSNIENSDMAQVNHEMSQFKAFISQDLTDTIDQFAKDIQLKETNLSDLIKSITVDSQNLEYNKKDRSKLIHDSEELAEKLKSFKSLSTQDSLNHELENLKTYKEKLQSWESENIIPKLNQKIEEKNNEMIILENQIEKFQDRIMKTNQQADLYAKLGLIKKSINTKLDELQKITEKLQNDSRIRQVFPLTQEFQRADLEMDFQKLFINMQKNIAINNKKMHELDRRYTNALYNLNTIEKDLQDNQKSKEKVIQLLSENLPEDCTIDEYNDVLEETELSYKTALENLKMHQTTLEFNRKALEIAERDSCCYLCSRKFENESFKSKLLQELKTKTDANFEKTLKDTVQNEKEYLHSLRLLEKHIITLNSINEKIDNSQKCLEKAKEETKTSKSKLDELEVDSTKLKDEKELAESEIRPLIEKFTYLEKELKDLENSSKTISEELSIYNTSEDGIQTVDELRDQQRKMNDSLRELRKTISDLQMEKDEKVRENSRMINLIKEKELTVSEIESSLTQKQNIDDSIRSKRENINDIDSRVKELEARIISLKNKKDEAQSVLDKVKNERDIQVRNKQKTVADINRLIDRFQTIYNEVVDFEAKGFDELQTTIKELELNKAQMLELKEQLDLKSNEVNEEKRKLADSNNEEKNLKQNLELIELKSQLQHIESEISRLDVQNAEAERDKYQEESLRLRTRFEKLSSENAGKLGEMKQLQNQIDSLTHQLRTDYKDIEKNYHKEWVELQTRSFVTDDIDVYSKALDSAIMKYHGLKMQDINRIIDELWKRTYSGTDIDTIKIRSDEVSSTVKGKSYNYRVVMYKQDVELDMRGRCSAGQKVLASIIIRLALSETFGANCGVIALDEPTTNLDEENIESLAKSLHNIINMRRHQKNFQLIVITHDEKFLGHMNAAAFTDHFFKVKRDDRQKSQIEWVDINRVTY

B1: MBP-Rif2-his (natural protein, S. cerevisiae, UniProt Q06208 1-395, looked up)
chain: MEHVDSDFAPIRRSKKVVDSDKIVKAISDDLEQKNFTVLRKLNLVPIKKSVSSPKVCKPSPVKERVDHVFYQKFKSMALQELGTNYLSISYVPSLSKFLSKNLRSMKNCIVFFDKVEHIHQYAGIDRAVSETLSLVDINVVIIEMNDYLMKEGIQSSKSKECIESMGQASYSGQLDFEASEKPSNHTSDLMMMVMRKINNDESIDHIVYFKFEQLDKLSTSTIIEPSKLTEFINVLSVLEKSNNIAFKVLIYSNNVSISSLLSTSLKKKLNTKYTVFEMPILTCAQEQEYLKKMIKFTFDSGSKLLQSYNSLVTCQLNNKESNLAIFFEFLKVFPHPFTYLFNAYTEIIVQSRTFDELLDKIRNRLTIKNYPHSAYNFKKNQRLPLKLTRKVHDR
notes: Rif2, S. cerevisiae; recombinant full-length Rif2; The MBP tag was cleaved with PreScission protease only after elution from the resin; In the ATPase and nuclease assays purified Rif2-his with MBP cleaved off was used; The construct was a gift from A. Bianchi; also called recombinant Rif2; not shown: MBP, N-terminal, kept; 10xHis, C-terminal, kept
With B1, the binding result is reported as “binds”.
